Experimental data from article PMC8494132, “Human Three-Finger Protein Lypd6 Is a Negative Modulator of the Cholinergic System in the Brain” (Frontiers in Cell and Developmental Biology, 2021).

Legend:
[1] = biological target: T1, α7-nAChR (native, rat hippocampal CA1 interneurons) (Rattus norvegicus, UniProt Q05941); test: whole-cell patch clamp, hippocampal slices; conditions: agonist; 1 mM choline pulses, 22°C, -60 mV, pH 7.4
T1 construct: gene Chrna7; native receptor in CA1 stratum radiatum interneurons of hippocampal slices
T1 sequence (Q05941 23-502): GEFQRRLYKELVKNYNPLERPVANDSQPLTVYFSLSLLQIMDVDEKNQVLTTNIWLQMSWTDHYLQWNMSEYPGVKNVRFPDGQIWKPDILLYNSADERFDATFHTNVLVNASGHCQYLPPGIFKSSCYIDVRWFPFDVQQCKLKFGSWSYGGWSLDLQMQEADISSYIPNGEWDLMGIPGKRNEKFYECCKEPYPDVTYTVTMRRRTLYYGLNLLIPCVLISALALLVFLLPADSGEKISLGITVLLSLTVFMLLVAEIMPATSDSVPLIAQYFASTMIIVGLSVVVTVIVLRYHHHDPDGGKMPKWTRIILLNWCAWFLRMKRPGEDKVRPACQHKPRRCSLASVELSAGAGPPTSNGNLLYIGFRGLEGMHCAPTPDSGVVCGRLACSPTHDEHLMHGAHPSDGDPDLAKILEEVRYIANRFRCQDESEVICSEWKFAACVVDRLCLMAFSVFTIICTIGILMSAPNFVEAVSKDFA

[2] = biological target: LRP6 (Homo sapiens) (UniProt O75581); conditions: cited from earlier work
Chain of LRP6 (Homo sapiens) (O75581 20-1370): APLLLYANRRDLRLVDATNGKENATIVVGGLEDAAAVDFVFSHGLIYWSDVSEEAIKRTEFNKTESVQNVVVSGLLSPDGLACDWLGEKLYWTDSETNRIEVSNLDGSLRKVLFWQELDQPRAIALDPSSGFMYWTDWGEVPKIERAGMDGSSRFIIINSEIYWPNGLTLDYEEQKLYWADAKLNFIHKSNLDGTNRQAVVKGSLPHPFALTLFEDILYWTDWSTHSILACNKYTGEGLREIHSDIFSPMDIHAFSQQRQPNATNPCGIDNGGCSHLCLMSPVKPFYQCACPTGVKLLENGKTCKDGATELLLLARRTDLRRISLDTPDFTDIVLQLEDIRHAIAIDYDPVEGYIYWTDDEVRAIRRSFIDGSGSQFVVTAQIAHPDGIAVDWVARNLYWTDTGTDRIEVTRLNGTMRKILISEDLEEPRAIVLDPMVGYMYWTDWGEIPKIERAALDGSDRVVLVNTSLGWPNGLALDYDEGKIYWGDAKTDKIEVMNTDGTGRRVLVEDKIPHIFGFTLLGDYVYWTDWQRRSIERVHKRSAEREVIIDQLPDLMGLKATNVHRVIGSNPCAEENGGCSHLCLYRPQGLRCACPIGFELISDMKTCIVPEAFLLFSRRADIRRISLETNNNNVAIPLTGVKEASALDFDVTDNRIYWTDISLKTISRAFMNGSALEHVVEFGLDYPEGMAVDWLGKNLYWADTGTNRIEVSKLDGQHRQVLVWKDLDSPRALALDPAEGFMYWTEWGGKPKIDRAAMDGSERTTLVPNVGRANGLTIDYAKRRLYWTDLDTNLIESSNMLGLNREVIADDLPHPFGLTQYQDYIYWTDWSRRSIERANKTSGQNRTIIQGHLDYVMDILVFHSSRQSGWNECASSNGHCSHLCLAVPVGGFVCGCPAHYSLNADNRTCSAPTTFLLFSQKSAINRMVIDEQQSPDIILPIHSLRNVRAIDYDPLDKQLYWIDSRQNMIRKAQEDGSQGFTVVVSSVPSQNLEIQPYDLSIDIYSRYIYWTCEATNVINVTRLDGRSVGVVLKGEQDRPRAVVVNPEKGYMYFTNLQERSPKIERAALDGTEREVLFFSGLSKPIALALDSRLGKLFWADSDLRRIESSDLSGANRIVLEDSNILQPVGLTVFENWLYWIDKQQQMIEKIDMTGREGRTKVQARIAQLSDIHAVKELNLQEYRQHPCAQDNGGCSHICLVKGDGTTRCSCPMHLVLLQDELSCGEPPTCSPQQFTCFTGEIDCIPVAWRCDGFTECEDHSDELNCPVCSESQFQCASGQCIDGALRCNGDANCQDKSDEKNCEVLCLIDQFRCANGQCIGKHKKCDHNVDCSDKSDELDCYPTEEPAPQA

[3] = biological target: human α3β4 nicotinic acetylcholine receptor expressed in X. laevis oocytes (human) (UniProt P32297)
Chain of human α3β4 nicotinic acetylcholine receptor expressed in X. laevis oocytes (human) (P32297 32-505, chain 1 of 2): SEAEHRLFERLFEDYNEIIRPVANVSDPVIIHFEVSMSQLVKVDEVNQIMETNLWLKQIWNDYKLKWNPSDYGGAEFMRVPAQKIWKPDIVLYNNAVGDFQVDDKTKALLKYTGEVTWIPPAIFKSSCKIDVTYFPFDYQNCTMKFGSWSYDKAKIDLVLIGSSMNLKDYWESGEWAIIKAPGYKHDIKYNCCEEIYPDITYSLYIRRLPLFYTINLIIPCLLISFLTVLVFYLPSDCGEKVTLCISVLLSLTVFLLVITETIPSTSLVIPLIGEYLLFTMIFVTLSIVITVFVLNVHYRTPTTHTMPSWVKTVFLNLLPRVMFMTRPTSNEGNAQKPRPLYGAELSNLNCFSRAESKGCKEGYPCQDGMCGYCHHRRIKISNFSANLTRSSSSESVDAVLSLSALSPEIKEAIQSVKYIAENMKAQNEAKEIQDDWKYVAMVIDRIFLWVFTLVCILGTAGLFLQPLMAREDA
Chain of human α3β4 nicotinic acetylcholine receptor expressed in X. laevis oocytes (human) (P30926 22-498, chain 2 of 2, further chain): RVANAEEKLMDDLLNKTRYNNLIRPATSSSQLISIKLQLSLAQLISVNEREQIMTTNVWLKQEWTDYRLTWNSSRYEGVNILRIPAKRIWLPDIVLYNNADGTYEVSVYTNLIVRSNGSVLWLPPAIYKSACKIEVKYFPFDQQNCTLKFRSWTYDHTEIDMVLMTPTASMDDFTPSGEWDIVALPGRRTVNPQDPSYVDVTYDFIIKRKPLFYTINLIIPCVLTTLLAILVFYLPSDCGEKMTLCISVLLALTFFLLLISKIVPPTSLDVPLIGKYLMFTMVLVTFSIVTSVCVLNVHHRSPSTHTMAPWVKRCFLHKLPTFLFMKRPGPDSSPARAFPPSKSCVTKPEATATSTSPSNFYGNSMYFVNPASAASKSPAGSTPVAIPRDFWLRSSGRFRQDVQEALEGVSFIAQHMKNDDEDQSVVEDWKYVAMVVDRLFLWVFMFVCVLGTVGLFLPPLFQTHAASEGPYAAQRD

[4] = biological target: human homomeric α7 nicotinic acetylcholine receptor expressed in X. laevis oocytes (human) (UniProt P36544)
Chain of human homomeric α7 nicotinic acetylcholine receptor expressed in X. laevis oocytes (human) (P36544 23-502): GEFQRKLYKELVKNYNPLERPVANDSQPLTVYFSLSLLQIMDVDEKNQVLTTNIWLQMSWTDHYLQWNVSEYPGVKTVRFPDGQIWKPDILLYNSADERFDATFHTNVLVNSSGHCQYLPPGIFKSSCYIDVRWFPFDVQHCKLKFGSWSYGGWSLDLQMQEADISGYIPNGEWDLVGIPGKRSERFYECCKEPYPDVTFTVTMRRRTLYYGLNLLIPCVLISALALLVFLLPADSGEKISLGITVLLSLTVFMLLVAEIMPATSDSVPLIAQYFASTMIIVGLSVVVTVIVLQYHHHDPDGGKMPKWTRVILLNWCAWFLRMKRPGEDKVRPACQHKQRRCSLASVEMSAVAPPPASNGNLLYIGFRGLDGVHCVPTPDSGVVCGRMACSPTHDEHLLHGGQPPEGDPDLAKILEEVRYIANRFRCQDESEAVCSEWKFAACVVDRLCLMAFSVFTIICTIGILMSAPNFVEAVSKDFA

[5] = biological target: native α7 nicotinic acetylcholine receptor in interneurons of CA1 stratum radiatum, rat hippocampal slices (rat (endogenous in hippocampal slices)) (UniProt Q05941)
Chain of native α7 nicotinic acetylcholine receptor in interneurons of CA1 stratum radiatum, rat hippocampal slices (rat (endogenous in hippocampal slices)) (Q05941 23-502): as the sequence (Q05941 23-502) above

[6] = biological target: human homomeric α7 nicotinic acetylcholine receptor expressed in X. laevis oocytes (human) (UniProt P36544); remark: listed apart in the source

In the case of `C[N+](C)(C)CCO` [Choline], the “whole-cell patch clamp, hippocampal slices” value [1] is reported as “Application of choline induced the robust currents in the interneurons of CA1 str. radiatum”.

In the case of Lypd6 (from UniProt Q86Y78), the Kd [2] is given as 1 µM.

“recombinant water-soluble variant of human Lypd6 containing the isolated three-finger LU-domain (ws-Lypd6) (domain or fragment)” gave an IC50 of inhibition of ACh-evoked currents (100 μM ACh, 5 min pre-incubation), two-electrode voltage clamp, X. laevis oocytes [3] of 34.9 µM, an IC50 of inhibition of ACh-evoked currents (100 μM ACh, 15 s pre-incubation), two-electrode voltage clamp, X. laevis oocytes [4] of 10.9 µM and an amplitude of choline-evoked currents (1 mM choline) with 1 μM ws-Lypd6, whole-cell patch clamp in rat hippocampal slices with 8 μM DhβE; reversed by washout (% of the control value) [5] of 72.

B1: isolated water-soluble LU-domain of Lypd6b (ws-Lypd6b) (domain or fragment)
chain: FKCFTCENAGDNYNCNRWAEDKWCPQNTQYCLTVHHFTSHGRSTSITKKCASRSECHFVGCHHSRDSEHTECRSCCEGMICNVELPTNHTNAVFA
Molecule B1 has a reduction of the ACh-evoked current amplitude by 30 μM ws-Lypd6b (100 μM ACh), two-electrode voltage clamp, X. laevis oocytes [6] of 20%.
